Laboratory results reported in patent publication US6190920A, “Method for detecting enzyme catalyzed cyclization” (The Regents of the University of California, priority 1997, dated 2001).
Structures can show the parent of a compound that is named as a salt. *1 amine or outer side, *2 acyl side, *3 side chain or, on linkers, in order; H or OH if unused. Where a SMILES comes first, the peptide text is derived from it. Bridges are numbered along the chain shown (N, C = ends). Where no end group is shown, it is not given here. [ ]: non-standard residue; d: D form. The star is where a group is joined. X2 = CCN(CCN([C@@H](Cc1ccc(O)cc1)C(=O)[*:2])[*:1])c1ccc(N=Nc2ccc([N+](=O)[O-])cc2)cc1; X1 = NC(=O)CCCC(=O)*

Columns and labels:
Format in all cases: biochemical, bovine
[1] = target: T1, Trypsin (Bos taurus, UniProt P00760); test: Trypsin assay (L-BAPNA hydrolysis, absorbance at 410 nm); conditions: 5% DMSO
T1 construct: Trypsin (from bovine pancrease, Type I, ethanol precipitate); purchased Sigma Type I (catalogue number not given); host or cells: bovine pancreas
T1 sequence (P00760 24-246): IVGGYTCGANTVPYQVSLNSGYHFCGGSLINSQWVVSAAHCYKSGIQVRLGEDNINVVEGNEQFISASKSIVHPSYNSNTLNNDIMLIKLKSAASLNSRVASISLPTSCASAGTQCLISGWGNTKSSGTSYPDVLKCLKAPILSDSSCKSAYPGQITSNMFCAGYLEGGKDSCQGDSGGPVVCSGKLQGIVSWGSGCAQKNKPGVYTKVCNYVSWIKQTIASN
Description: (§1) Reagents and solvents were obtained from commercial suppliers and used as received. Trypsin (from bovine pancrease, Type I, ethanol precipitate) and N-α-benzoyl-L-arginine-p-nitroanilide, hydrochloride were obtained from Sigma®. All moisture- or air-sensitive reactions were conducted under nitrogen in dried solvents. Unless otherwise indicated, chromatography was performed on silica gel with the indicated solvent as eluant. […]
All assays were performed at 37° C. on a Kontron Uvikon 860 UV-Vis spectrophotmeter. The forward reaction rate was measured by monitoring the absorbance change at 410 nm of the para-nitroanilide produced ( e=8800 M^-1 cm^-1 at 410 nm) at 30 sec intervals for 15 min. The concentrations of inhibitor solutions were determined spectrophotometrically from Disperse Red 1's extinction coefficient of 15,562 M^-1 cm^-1 at 490 nm. […] Inhibition constants (Ki 's) were determined from the slope of the V0 /v vs. [inhibitor] plots where the slope=1/Ki (1 +[L-BAPNA]/Km) and Km =2.0 +/-0.3 mM, V0 =rate in the absence of inhibitor and v=rate in the presence of inhibitor. […]

[2] = target: T1, Trypsin; test: Trypsin-catalyzed cyclization of acyclic compound, products determined; conditions: 30:30:40 DMF/ethanol/pH 6.5 Tris buffer
Description: The structure was determined conventionally.
The compound of Formula III SEQ ID NO: 1 where L is a resin linker was treated in the same manner, and the resin component removed. […] Therefore the material on the resin is accessible to the enzyme. A control experiment without the enzyme gave only starting material.
as §1

[3] = target: T1, Trypsin; test: Dye retention on resin after trypsin treatment and cleavage of ester X; conditions: trypsin in 30:30:40 DMF/ethanol/pH 6.5 Tris buffer, then 1:1 methanol/1M sodium hydroxide, filtered and washed
Text: The compound of formula (3) is soluble; the compounds of formula (4) and (5) are not, as a consequence of their attachment to a resin. Therefore, whether or not cyclization has taken place, a solid insoluble product will remain, which can be filtered off and purified by washing. However, if cyclization has taken place and a product of formula (5) has been formed, the dye will still be attached to the resin, which consequently is visibly colored, or is visible under UV or by fluorescence, depending upon the dye used. If cyclization has not taken place and products of formula (3) and (4) have been formed, the dye will be seen in the filtrate and the insoluble resin material will be colorless.
The specific analogs that afford positive results in this screen may be then identified by conventional analysis of the material that is isolated from the resin beads by cleaving the bond linking the material to the resin beads. […]

Molecule: NC(N)=NCCCC(NC(=O)c1ccccc1)C(=O)Nc1ccc([N+](=O)[O-])cc1 [L-BAPNA, N-α-benzoyl-L-arginine-p-nitroanilide, hydrochloride, reference compound]
- Km ([1]; 100 mM TRIS/10 mM CaCl2 (pH=8.0), Lineweaver-Burke and non-linear regression of initial rates): 2000 ± 300 µM

Molecule: CCN(CCN1C(=O)[C@H](CC(C)C)NC(=O)[C@H](CO)NC(=O)[C@H](CCCNC(=N)N)NC(=O)[C@@H](NC(=O)CCCC(N)=O)[C@@H](C)OC(=O)[C@H](C(C)C)NC(=O)[C@@H]1Cc1ccc(O)cc1)c1ccc(N=Nc2ccc([N+](=O)[O-])cc2)cc1 [macrocyclic analog] (X1-TRSL[X2]V; ester 1-C)
- Ki ([1]; 37° C., 100 mM TRIS/10 mM CaCl2 pH=8.0, substrate L-BAPNA, average value of 3 separate determinations, read-out: inhibition constant Ki): 230 nM

Molecule: O-{N-[L-Serinyl-L-leucyl]-N-[(4-nitrophenylazo)-2-aminophenylethyl-N-ethyl]-L-tyrosinyl-L-valinyl}-N-(glutaryl-photolinker-Tentagel-amide)-L-threonyl-L-arginine, Methyl Ester (SLYVTR-OMe; also: Tyr3 N-substituted with (4-nitrophenylazo)-2-aminophenylethyl-N-ethyl group, Val4-Thr5 ester bond via Thr side-chain OH, backbone changed)
- cyclization by trypsin [2]: The same products A and B were obtained
- retention of dye colour on resin [3]: The color was retained on the resin

Molecule: O-{N-[L-serinyl-L-leucyl]-N-[(4-nitrophenylazo)-2-aminophenylethyl-N-ethyl]-L-tyrosinyl-L-valinyl}-N-(glutaryl carboxamide)-L-threonyl-L-arginine, Methyl Ester (SLYVTR-OMe; also: depsipeptide: Val ester-linked to Thr side-chain O, Tyr N-substituted with (4-nitrophenylazo)-2-aminophenylethyl-N-ethyl azo dye, Thr N-acylated with glutaryl carboxamide) [Ser--Leu--N(dye)--Tyr--Val--O--Thr(NH--C(O)--(CH2)3 CONH--L)--Arg--OR, R methyl, L hydrogen]
- cyclization by trypsin [2]: readily cyclized
